Data: patent publication US20250154263A1 (FEINSTEIN INSTITUTES FOR MEDICAL RESEARCH, published 2025)

T1: CLECL1 on the cell surface (CLECL1+ CLL PF cells) (human, UniProt Q8IZS7 1-167)
T1 construct: Native CLECL1 on patient CLL cells or the MEC1 CLL line; also called DCAL-1
T1 sequence: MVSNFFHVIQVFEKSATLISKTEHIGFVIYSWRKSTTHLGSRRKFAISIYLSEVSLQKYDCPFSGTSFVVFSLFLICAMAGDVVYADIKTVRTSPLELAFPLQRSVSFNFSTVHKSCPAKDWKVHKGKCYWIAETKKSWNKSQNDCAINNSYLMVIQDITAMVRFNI

B1: mAb 17.2 (antibody, mouse IgG1, V domains shown)
VH: EVQLQQSGAELVRSGASVKLSCTTSGFNIKDFYIHWVRQRPEQGLEWIGWIDPKNDDTEYAPRFQGKATVTADTSSNTAYLHLSGLTSEDTAVYYCNGRYPTMDFWGQGTSVT
VL: EIVLTQSPITMTTSPGEKITITCSASSSISSHYLHWYQQKPGFSPKLLIYRASNLASGVPTRFSGSGSGTSYSLTIDTMEAEDVATYFCQQGSSLPLTFGAGTKLELK
notes: also called 17.2.3; hybridoma #17
B2: mAb 243.6 (antibody, mouse IgG1, V domains shown)
VH: EVQLQQSGTVLVRSGASVKLSCTASGFNIKEYYIHWVKQRPEQGLEWIAWIDLENGESEYAPKFQGKATLTADTSSNTAYLQLSGLTSEDTAVYYCNAFHGNYAHNYAIDYWGQGTSVTVSQ
VL: DIVMSQSPSSLAVSAGEKVTMTCKSSQSLLNSRTRKNYLAWYQQKPGQSPKLLIYWASTRKSGVPDRFTGSGSGTDFTLTISSVQAEDLAVYYCKQSYNLRTFGGGTKLEIK
notes: also called 243.6.1

Target: T1, CLECL1 on the cell surface (CLECL1+ CLL …)
Experiment: flow cytometry (FIG. 8E; cells not named in the legend)

binding result	Binder
binds	B1
binds	B2
